Assays:
人ETA (内皮素受体A) = target: T1, 人ETA (内皮素受体A) (human, UniProt P25101 21-427); assay: flow cytometry (FACS) on CHO-ETA cells, anti-human IgG Fc PE secondary
T1 construct: whole, on cells; The plasmid's ETA construct is not described further; also called CHO-ETA; CHO-ETA-EGFP
T1 sequence (looked up): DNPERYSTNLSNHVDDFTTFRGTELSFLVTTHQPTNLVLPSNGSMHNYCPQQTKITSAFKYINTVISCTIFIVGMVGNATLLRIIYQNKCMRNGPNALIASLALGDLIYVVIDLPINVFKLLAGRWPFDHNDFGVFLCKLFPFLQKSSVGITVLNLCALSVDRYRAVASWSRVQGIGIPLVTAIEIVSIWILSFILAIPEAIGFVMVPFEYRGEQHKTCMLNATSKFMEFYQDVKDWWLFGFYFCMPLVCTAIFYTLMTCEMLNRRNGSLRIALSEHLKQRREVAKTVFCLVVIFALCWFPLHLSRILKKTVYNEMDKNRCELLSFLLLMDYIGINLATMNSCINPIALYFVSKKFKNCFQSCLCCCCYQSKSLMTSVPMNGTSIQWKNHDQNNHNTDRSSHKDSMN

人CD3 = target: T2, 人CD3 (human, UniProt P07766 23-207); assay: flow cytometry (FACS) on Jurkat cells, anti-human IgG Fc PE secondary
T2 construct: whole, on cells; Natural CD3 complex on Jurkat T cells (and CIK cells); also called Jurkat细胞表面人CD3分子
T2 sequence (P07766 23-207): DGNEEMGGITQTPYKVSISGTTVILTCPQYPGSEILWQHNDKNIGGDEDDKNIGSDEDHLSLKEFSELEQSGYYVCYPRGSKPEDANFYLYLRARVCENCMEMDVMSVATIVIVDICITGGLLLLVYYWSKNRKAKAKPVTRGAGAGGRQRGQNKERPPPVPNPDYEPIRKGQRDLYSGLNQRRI

B1: αETA(L5H5,SEQ NO ID:19+SEQ NO ID:20)/αCD3(L3H3,SEQ NO ID:15+SEQ NO ID:16)双特异性抗体 (bispecific antibody)
chain 1: QVTLKESGPTLVKPTQTLTLTCTFSGFSLTTSGLGVAWIRQPPGKALEWLAHIWSDGDTRYYPALKNRLTITKDTSKNQVVLTMTNMDPVDTATYYCAHMKDDSLYFDNWGQGTLVTVSS
chain 2: EIVLTQSPDFQSVTPKEKVTITCRASQNIGTSIHWYQQKPDQSPKLLIKYASKSISGVPSRFSGSGSGTDFTLTINSLEAEDAATYYCQHSYSFPWTFGQGTKVEIK
chain 3: EAVVTQEPSLTVSPGGTVTLTCRSSTGAVTTSNYANWVQQKPGQAPRGLIGGTNKRAPWTPARFSGSLLGGKAALTLSGAQPEDEAEYYCALWYSNLWVFGGGTKLTVL
chain 4: EVQLVESGGGLVQPGGSLRLSCAASGFTFNTYAMNWVRQAPGKGLEWVGRIRSKYNNYATYYADSVKDRFTISRDDSKNTLYLQMNSLRAEDTAVYYCVRHGNFGNSYVSWFAYWGQGTLVTVSS
With B1 the EC50 (人ETA (内皮素受体A)) was 3.51 nM and the EC50 (人CD3) was 10.7 nM.

— patent CN115490770A (GMAX BIOPHARM HANGZHOU CO LTD, dated 2022)
